Measurements as given in patent US20060142192A1 (ZymoGenetics, published 2006).

B1: human IL-17B (biotinylated) (ligand, UniProt Q9UHF5 21-180, looked up)
chain: QPRSPKSKRKGQGRPGPLAPGPHQVPLDLVSRMKPYARMEEYERNIEEMVAQLRNSSELAQRKCEVNLQLWMSNKRSLSPWGYSINHDPSRIPVDLPEARCLCLGCVNPFTMQEDRSMVSVPVFSQVPVRRRLCPPPPRTGPCRQRAVMETIAVGCTCIF
modifications: biotin label (sites not given)
B2: human IL-17F (biotinylated) (ligand, UniProt Q96PD4 31-163, looked up)
chain: RKIPKVGHTFFQKPESCPPVPGGSMKLDIGIINENQRVSMSRNIESRSTSPWNYTVTWDPNRYPSEVVQAQCRNLGCINAQGKEDISMNSVPIQQETLVVRRKHQGCSVSFQLEKVLVTVGCTCVTPVIHHVQ
modifications: biotin label (sites not given)
B3: murine IL-17C (ligand)
chain: DPPSWGKPRSHRTLRCYSAEELSHGQAPPHLLTRSARWEQALPVALVASLEATGHRRQHEGPLAGTQCPVLRPEEVLEADTHERSISPWRYRIDTDENRYPQKLAVAECLCRGCINAKTGRETAALNSVQLLQSLLVLRRQPCSRDGTADPTPGSFAFHTEFIRVPVGCTCVLPRSTQ
modifications: biotin label in the binding assays (sites not given); unlabelled in the signalling assays
notes: also called mouse IL-17C; IL-17CmCH6
B4: human IL-17D (biotinylated) (ligand, UniProt Q8TAD2 18-202, looked up)
chain: APRAGRRPARPRGCADRPEELLEQLYGRLAAGVLSAFHHTLQLGPREQARNASCPAGGRPADRRFRPPTNLRSVSPWAYRISYDPARYPRYLPEAYCLCRGCLTGLFGEEDVRFRSAPVYMPTVVLRRTPACAGGRSVYTEAYVTIPVGCTCVPEPEKDADSINSSIDKQGAKLLLGPNDAPAGP
modifications: biotin label (sites not given)

Assays:
human ZcytoR21x2 [1] = biological target: T1, human ZcytoR21x2 (human, UniProt Q8NFR9 24-667); experiment: flow cytometry, biotinylated ligand + streptavidin-PE on stably transfected BHK cells
T1 construct: also called hcytor21x2
T1 sequence: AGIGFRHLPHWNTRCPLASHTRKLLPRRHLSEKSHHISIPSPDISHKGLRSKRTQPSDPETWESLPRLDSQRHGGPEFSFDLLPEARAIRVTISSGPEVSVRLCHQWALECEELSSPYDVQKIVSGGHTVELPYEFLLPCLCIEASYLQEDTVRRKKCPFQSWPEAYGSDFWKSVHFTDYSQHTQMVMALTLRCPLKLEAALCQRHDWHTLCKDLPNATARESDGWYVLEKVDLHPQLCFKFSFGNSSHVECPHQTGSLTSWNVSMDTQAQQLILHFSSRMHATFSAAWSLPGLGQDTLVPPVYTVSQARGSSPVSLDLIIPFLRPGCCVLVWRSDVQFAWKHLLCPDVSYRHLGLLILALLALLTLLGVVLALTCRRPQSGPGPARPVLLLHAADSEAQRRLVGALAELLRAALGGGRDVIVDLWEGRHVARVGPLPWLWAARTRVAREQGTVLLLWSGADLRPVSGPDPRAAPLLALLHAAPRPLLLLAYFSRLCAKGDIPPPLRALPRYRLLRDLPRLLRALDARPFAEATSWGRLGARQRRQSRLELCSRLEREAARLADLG

human ZcytoR21x1 [2] = biological target: T2, human ZcytoR21x1 (human, UniProt Q8NFR9 24-667); experiment: as above
T2 construct: also called hcytor21x1; IL-17RE
T2 sequence: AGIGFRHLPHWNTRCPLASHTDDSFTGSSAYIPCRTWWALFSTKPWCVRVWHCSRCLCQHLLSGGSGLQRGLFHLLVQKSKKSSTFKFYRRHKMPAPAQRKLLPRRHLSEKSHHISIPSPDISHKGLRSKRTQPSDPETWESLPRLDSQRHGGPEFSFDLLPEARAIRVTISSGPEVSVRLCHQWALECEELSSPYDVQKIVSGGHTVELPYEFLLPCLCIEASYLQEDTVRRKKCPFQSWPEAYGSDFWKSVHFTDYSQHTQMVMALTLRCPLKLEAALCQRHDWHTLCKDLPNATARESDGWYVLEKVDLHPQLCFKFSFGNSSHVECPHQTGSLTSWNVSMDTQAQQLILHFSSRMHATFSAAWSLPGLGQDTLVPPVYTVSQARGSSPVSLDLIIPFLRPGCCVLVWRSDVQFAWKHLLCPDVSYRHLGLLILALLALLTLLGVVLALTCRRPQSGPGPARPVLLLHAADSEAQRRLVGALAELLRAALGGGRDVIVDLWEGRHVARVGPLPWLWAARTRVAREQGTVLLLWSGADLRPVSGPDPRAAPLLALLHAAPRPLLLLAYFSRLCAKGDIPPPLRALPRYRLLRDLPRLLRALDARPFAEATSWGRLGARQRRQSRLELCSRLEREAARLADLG

human ZcytoR21x2 [3] = biological target: T1, human ZcytoR21x2; experiment: flow cytometry, biotinylated IL-17C (1 ug/ml) + streptavidin-PE on stably transfected BHK cells
Method: (§1) BHK cells stably transfected with human and mouse ZcytoR21 splice variants were plated and grown to confluency in T-75 flasks. Cells were lifted off using a non-protease reagent such as Versene (Invitrogen 15040-066), pelleted, and resuspended in a staining reagent (HBSS+1% BSA+0.1% NaAzide+10 mM HEPES) at 2×10e7 cells/ml and aliquoted to a 96-well Costar plate. IL-17C that has been labeled with biotin was independently added to cells at a concentration of 1 ug/ml. The cell/ligand mixture can be incubated for 1 hr at 4 degrees. The wells were washed 1× in staining reagent, and incubated in a secondary reagent containing staining reagent plus Streptavidin-PE (BD Pharmingen 554061) at a 1:100 ratio. The wells were incubated at 4° C. in the dark for 1 hr, followed by a 2× wash in staining media. The cells were then resuspended in a 1:1 mixture of staining media and Cytofix (BD Bioscience 554655) and incubated 10 minutes at RT. The cells were analysed by Flow Cytometry and by gating on the PE positive events for cells that bound IL-17C.

murine ZcytoR21x6 = biological target: T3, murine ZcytoR21x6 (mouse, UniProt Q8BH06 24-637); experiment: as above
T3 construct: also called mouse ZcytoR21x6; mcytor21x6
T3 sequence: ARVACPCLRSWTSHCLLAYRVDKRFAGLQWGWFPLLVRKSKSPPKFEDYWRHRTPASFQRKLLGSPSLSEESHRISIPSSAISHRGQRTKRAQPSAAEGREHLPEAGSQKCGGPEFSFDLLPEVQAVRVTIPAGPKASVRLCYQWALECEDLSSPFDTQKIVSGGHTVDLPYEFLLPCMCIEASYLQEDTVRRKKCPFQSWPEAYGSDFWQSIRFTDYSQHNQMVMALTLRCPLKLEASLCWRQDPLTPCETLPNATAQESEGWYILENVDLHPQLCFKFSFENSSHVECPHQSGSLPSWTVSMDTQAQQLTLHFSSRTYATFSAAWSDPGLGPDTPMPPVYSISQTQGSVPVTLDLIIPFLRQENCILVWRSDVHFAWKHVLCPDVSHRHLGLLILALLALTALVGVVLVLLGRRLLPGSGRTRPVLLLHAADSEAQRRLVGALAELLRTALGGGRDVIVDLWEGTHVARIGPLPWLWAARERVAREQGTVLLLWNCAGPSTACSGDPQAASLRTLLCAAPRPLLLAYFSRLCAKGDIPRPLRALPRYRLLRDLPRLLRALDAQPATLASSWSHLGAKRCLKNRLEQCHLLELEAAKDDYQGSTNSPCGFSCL
Method: as §1

human ZcytoR21x1 [4] = biological target: T2, human ZcytoR21x1; experiment: as above
Method: as §1

human ZcytoR21x6 = biological target: T4, human ZcytoR21x6 (human, UniProt Q8NFR9 24-667); experiment: as above
T4 construct: also called hcytor21x6
T4 sequence: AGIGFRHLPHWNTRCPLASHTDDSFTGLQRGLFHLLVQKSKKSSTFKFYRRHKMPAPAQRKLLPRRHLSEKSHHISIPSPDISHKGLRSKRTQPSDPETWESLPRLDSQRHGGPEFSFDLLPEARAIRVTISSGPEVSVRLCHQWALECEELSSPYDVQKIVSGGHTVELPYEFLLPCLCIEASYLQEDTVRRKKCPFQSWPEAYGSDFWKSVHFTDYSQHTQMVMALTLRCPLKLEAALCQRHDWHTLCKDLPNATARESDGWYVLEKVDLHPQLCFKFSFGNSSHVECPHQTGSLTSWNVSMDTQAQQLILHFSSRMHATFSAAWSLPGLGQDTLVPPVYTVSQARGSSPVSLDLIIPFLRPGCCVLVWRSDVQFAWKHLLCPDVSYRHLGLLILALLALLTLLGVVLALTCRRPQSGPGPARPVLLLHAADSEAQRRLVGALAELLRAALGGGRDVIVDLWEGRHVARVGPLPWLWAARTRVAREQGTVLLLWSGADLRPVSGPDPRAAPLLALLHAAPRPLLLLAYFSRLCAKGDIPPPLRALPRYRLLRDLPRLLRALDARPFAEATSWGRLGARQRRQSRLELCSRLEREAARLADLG
Method: as §1

human ZcytoR21x13 = biological target: T5, human ZcytoR21x13 (human, UniProt Q8NFR9 24-667); experiment: as above
T5 construct: also called hcytor21x13
T5 sequence: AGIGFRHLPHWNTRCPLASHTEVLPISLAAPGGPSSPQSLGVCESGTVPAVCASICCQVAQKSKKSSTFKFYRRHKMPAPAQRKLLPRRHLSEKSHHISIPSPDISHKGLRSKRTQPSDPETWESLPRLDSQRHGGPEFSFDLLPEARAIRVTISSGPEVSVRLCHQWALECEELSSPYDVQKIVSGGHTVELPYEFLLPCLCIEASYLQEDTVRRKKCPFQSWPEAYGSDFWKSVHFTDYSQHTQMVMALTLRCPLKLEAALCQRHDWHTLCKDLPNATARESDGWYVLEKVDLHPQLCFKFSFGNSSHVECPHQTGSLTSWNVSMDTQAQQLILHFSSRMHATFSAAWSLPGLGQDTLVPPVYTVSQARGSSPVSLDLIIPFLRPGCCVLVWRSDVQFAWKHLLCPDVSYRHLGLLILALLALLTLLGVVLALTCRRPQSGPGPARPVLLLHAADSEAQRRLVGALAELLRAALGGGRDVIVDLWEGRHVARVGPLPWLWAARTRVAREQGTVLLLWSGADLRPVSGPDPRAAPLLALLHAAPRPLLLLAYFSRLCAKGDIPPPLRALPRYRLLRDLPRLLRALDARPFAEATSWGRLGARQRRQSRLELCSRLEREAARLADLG
Method: as §1

Binder | binding result (human ZcytoR21x2 [1]) | binding result (human ZcytoR21x1 [2]) | binding result (human ZcytoR21x2 [3]) | binding result (murine ZcytoR21x6) | binding result (human ZcytoR21x1 [4]) | binding result (human ZcytoR21x6) | binding result (human ZcytoR21x13)
B1 | no binding | no binding | – | – | – | – | –
B2 | no binding | no binding | – | – | – | – | –
B3 | – | – | binds | binds | binds | binds | binds
B4 | no binding | no binding | – | – | – | – | –
